For two molecules, Kd results are on record in PMC1361355 (2006).

The target of this test is T1, NiV-G-Fc, a fusion construct between the ectodomain of NiV-G and the Fc region of human IgG1 (Nipah virus, UniProt Q9IH62 71-602).
T1 chain: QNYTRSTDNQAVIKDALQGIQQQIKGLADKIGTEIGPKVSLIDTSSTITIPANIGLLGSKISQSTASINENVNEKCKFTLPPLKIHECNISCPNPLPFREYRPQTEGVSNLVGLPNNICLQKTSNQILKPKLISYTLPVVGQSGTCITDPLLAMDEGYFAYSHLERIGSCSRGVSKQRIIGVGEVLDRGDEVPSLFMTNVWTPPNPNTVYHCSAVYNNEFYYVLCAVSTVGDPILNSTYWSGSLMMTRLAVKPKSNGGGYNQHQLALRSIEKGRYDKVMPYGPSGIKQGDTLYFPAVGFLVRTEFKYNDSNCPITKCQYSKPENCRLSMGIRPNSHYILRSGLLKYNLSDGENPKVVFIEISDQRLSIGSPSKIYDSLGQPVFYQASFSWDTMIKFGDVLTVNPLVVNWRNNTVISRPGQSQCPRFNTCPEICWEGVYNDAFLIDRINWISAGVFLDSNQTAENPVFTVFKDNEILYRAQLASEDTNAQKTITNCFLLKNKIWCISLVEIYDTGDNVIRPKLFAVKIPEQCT
The experiment in a line: SPR. (SPR reads the build-up and loss of mass on a sensor chip optically.)

B1: ephrinB3-Fc (soluble Fc-fusion ephrin protein, purchased) (Fc fusion)
chain: LSLEPVYWNSANKRFQAEGGYVLYPQIGDRLDLLCPRARPPGPHSSPNYEFYKLYLVGGAQGRRCEAPPAPNLLLTCDRPDLDLRFTIKFQEYSPNLWGHEFRSHHDYYIIATSDGTREGLESLQGGVCLTRGMKVLLRVGQSPRGGAVPRKPVSEMPMERDRGAAHSLEPGKENLPGDPTSNATSRGAEGPLPPPSMP
By Kd is commonly meant the free concentration of one partner at which half of the binding sites on the other are occupied at equilibrium, for simple one-to-one binding. Low readings indicate a tighter complex, high ones a looser complex. The molecule B1 had a Kd of 2.83 nM.

B2: ephrinB2-Fc (soluble Fc-fusion ephrin protein, purchased) (Fc fusion)
chain: RSIVLEPIYWNSSNSKFLPGQGLVLYPQIGDKLDIICPKVDSKTVGQYEYYKVYMVDKDQADRCTIKKENTPLLNCARPDQDVKFTIKFQEFSPNLWGLEFQKNKDYYIISTSNGSLEGLDNQEGGVCQTRAMKILMKVGQDASSAGSARNHGPTRRPELEAGTNGRSSTTSPFVKPNPGSSTDGNSAGHSGNNLLGSEVA
As to B2, the affinity, expressed as Kd, was 0.11 nM.
